Measured values reported in the supplement of paper PMC9170038.

Tested on: MS2 coat protein
Experiment: apparent KD of MS2 coat protein; designed switch direction (-1 OFF switch, 1 ON switch): 1; higher = weaker reporter binding
How it was run: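 Normalised cluster fluorescence was curve-fitted, and each design's median over clusters is its apparent KD. Before this, SNAP-549-labelled MS2 coat protein was titrated from 0.7 or 1.5 nM, doubling to 3 µM, over RNA switches transcribed on Illumina chips by stalled E. coli RNA polymerase. Titrations had no input, 200 uM small-molecule ligand, or an oligonucleotide input, and steps lasted 0.8–1.5 h (lowest) to 10–20 min (highest).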

[1] = input ligand: microRNA oligo, concentration not stated
[2] = Eterna round: R95, input ligand: FMN 200 uM
[3] = Eterna round: R95, input ligand: microRNA oligo, concentration not stated
[4] = Eterna round: R95, input ligand: none

Sequence	apparent KD of MS2 coat protein (input ligand: FMN 200 uM) [µM]	apparent KD of MS2 coat protein [1] [µM]	apparent KD of MS2 coat protein (input ligand: none) [µM]	apparent KD of MS2 coat protein [2] [µM]	apparent KD of MS2 coat protein [3] [µM]	apparent KD of MS2 coat protein [4] [µM]
AUCAUUUAUGCAGGAUAUGAUUAACAUGAGGAUCACCCAUGUGGUGUUGUGAGUAAGGAGAGUGAUCAGAAGGGCAUUUUUUUU [JMF's solution 72] (Eterna round: R96, puzzle: Same State NG 2)	0.476	0.296	0.482			
AUCCUACAUGAGGAUCACCCAUGUGACGCCUCGAUAGGAUAUGCGUGUGCCUUGGCGCAUGCAGAAGGAUUGUUGC [JL Aveso mod 7] (Eterna round: R96, puzzle: Same State 1)		0.0203				
AUCCUACAUGAGGAUCACCCAUGUGACGCCUCGAUAGGAUAUGCGUGUGCCUUGGCGCAUGCAGAAGGAUUGUUGC [JL Aveso mod 7] (puzzle: Same State 1)				0.0692	0.0175	0.0271
AUGCCAAAACGAGGAUAUGGAGCCUUAUUGGCUCCAGAAGGUGUGACAUGAGGAUCACCCAUGUGGCAGUGGUCUAAUGACCAC [Eli NG1ss - 40] (Eterna round: R96, puzzle: Same State NG 1)	0.0942	0.105	0.133			
AUGUGGAAGCCACAGGAUAUACUAGGGUACACAUGAGGAUCACCCAUGUGCGGCUAAAAGUGCUAGUAGAAGGGUGGUAAAGAAA [Diartire] (puzzle: Same State 2)				0.0138	0.0125	0.015
AUGUUUAAUGCAGGAUAUGAUUAACAUGAGGAUCACCCAUGUGGUGUUGUGAGUAAGGAGAGUGAUCAGAAGGGCAUUUUUUUU [JMF's solution 101] (Eterna round: R96, puzzle: Same State NG 2)		0.516				
AUUAAACAUGAGGAUCACCCAUGUCAACAAAGUCGAGGAUAUGGGCAAAUAAAAUAAGAACCAGAAGGCGACUAAU [salish99_ss1_r3_071] (puzzle: Same State 1)					0.0223	
AUUAAACAUGAGGAUCACCCAUGUCAACAUAGUCGAGGAUAUGGGCAAAUAAAAUAAGAACCAGAAGGCGAAUAAU [salish99_ss1_r3_075] (puzzle: Same State 1)				0.0452	0.266	0.335
AUUAAUUAAUUAAUACAUGAGGAUCACCCAUGUAAUAAGAUCAAGGAUAUCAGCUCGAUUAGAGCUGAGAAGGUGAUCACAUGU [SSNG3/17-B2] (Eterna round: R96, puzzle: Same State NG 3)		0.509				
AUUAUACAUGAGGAUCACCCAUGUAAUUAAUCUAGUAAGAUCUAGGAUAUCAGCUCGAAUAGAGCUGAGAAGGAGAUCACAUGU [SSNG3/20-D1] (Eterna round: R96, puzzle: Same State NG 3)		0.0458				
AUUAUACAUGAGGAUCACCCAUGUAAUUAAUUAAUUAAGAUCAAGGAUAUCAGCUCGUUUAGAGCUGAGAAGGUGAUCACAUGU [SSNG3/20-B3] (Eterna round: R96, puzzle: Same State NG 3)		0.147				
AUUAUACAUGAGGAUCACCCAUGUAAUUAAUUAAUUAAGAUCUAGGAUAUCAGCUCGUUUAGAGCUGAGAAGGAGAUCACAUGU [SSNG3/20-C3] (Eterna round: R96, puzzle: Same State NG 3)		0.0233				
AUUAUUAAUGCAGGAUAUGAAUAACAUGAGGAUCACCCAUGUGGUGUUGUGAGUAAGGAGAGAGAUCAGAAGGGCAUUUUUUUU [JMF's solution 4] (Eterna round: R96, puzzle: Same State NG 2)	0.349	0.225	0.258			
AUUAUUUAUGCAGGAUAUGAUUAACAUGAGGAUCACCCAUGUGGUGUUGUGAGUAAGGAGAGUGAUCAGAAGGGCAUUGUUUUU [JMF's solution 46] (Eterna round: R96, puzzle: Same State NG 2)	1.45	0.473	0.475			
AUUAUUUAUGCAGGAUAUGAUUAACAUGAGGAUCACCCAUGUGGUGUUGUGAGUAAGGAGAGUGAUCAGAAGGGCAUUUGUUUU [JMF's solution 48] (Eterna round: R96, puzzle: Same State NG 2)	0.386	0.321	0.402			
AUUGCUUACGCAGGAUAUGAUGCGAAAAUUGCGUCAGAAGGGUGAAGUGACUCGUUGCAACAAGACAUGAGGAUCACCCAUGUC [SameState NG1 #92] (Eterna round: R96, puzzle: Same State NG 1)	0.135	0.116	0.199			
AUUUAACAAGCUUUUUGCUCGUCUUAUAAACAUGAGGAUCACCCAUGUAAUAGCGUGAGAGUAAAUAAUUUAAUUAU [JMF 99] (puzzle: Sensor for hsa-mir-208a)				0.0137	0.0486	0.0108

Sequence	apparent KD of MS2 coat protein (input ligand: FMN 200 uM) [µM]	apparent KD of MS2 coat protein [1] [µM]	apparent KD of MS2 coat protein (input ligand: none) [µM]	apparent KD of MS2 coat protein [2] [µM]	apparent KD of MS2 coat protein [3] [µM]	apparent KD of MS2 coat protein [4] [µM]
AUUUUUAAUGCAGGAUAUGAUUAACAUGAGGAUCACCCAUGUGGUGUUGUGAGUAAGGAGAGUGAUCAGAAGGGCAUUUUUUGU [JMF's solution 87] (Eterna round: R96, puzzle: Same State NG 2)	0.827	0.301	0.621			
CAGCGCUGUCGAGAGGAUAUGUGGUGAUGGACAUGAGGAUCACCCAUGUUAGCGACAGCAUCACGGCAGAAGGCUCUACCGCUGC [Soteed Omei mod 30] (puzzle: Same State 2)				0.0312	0.0406	0.0231
CAGCGCUGUUGAGAGGAUAUGCGGUGAUGGACAUGAGGAUCACCCAUGUUAGCGACAGCAUUACGGCAGAAGGCUUCACAGCUGC [Soteed Omei mod 17] (Eterna round: R96, puzzle: Same State 2)	0.0139	0.0369	0.0471			
CAGCGCUGUUGAGAGGAUAUGCGGUGAUGGACAUGAGGAUCACCCAUGUUAGCGACAGCAUUACGGCAGAAGGCUUCACAGCUGC [Soteed Omei mod 17] (puzzle: Same State 2)					0.0393	
CAGCGCUGUUGAGAGGAUAUGCGGUGAUGGACAUGAGGAUCACCCAUGUUAGCGAUAGCAUUACGGUAGAAGGCUCUACAGCUGC [Soteed Omei mod 3] (puzzle: Same State 2)					0.014	
CAGUGCUGUUGAGAGGAUAUGCGGCGACGGACAUGAGGAUCACCCAUGUUAGCGACAGCGUUGCGGCAGAAGGCUCUGCCCACUG [Soteed Omei mod 49] (puzzle: Same State 2)					0.0088	
CAUAAUAAAACGGAGGAUAUGCUACCCUUCACAUGAGGAUCACCCAUGUUACCCUCUUAUUUUCAGUAGAAGGCCGAUACAUAAC [Delilah] (puzzle: Same State 2)				0.0381	0.0319	0.0389
CAUCAUGCGUCUAAGGAUAUGUCUCACAAGACAUGAGGAUCACCCAUGUAGAAUAAAUAAAUGAUGCAGAAGGUGGAGCGCAUGC [Erzausis] (Eterna round: R96, puzzle: Same State 2)		0.253				
CAUCUAUACGUAGGAUAUGUAGGAUAUGCCUACAUGAGGAUCACCCAUGUUCGCAUGGCAGAAGGACAGAAGGACGAACUACUU [pwkr ssNG2 2FMN + 1F5.6] (Eterna round: R96, puzzle: Same State NG 2)	0.0324	0.174	0.234			
CAUCUAUACUUAGGAUAUGUAGGAUAUGCCUACAUGAGGAUCACCCAUGUUCGCAUGGCAGAAGGACAGAAGGAAGAACUACUU [pwkr ssNG2 2FMN + 1F5.5] (Eterna round: R96, puzzle: Same State NG 2)	0.0943	0.0573	0.266			
CCAGGACAUGAGGAUCACCCAUGUGCUUAAUGUGGAGAAUCUCAGGAUAUCAUGAGGAUCACCCAUGAGAAGGGAGAUCCGAGG (Eterna round: R96, puzzle: Same State NG 3)	0.573	0.234	0.398			
CCAUAACAGUGAGGAUAUUGUUGCGAUAAGUGACGAGAAGGCAUUUAUGUGAAAUAAACAUACAUGAGGAUCACCCAUGUUGUA [Omei SS(NG)1 Bv4] (Eterna round: R96, puzzle: Same State NG 1)	0.0173	0.0167	0.0223			
CCGAUUUAUGGAGGAUAUGGAGCCUUAUUGGCUCCAGAAGGUCAAUAACAUGAGGAUCACCCAUGUACGGCGGUCAAUAGACCG [Eli NG1ss - 70] (Eterna round: R96, puzzle: Same State NG 1)	0.0248	0.0281	0.0346			
CCGUAAAAUGGAGGAUAUGGAGCCUUAUUGGCUCCAGAAGGUCAUAAAACAUGAGGAUCACCCAUGUCGGCGGUCAAUAGACCG [Eli NG1ss - 78] (Eterna round: R96, puzzle: Same State NG 1)		0.0315				
CCGUAGAUGGUAGGAUAUGGAGCCUUAUUGGCUCCAGAAGGAUCGAAACAUGAGGAUCACCCAUGUUCGGCGGUCAAUAGACCG [Eli NG1ss - 85] (Eterna round: R96, puzzle: Same State NG 1)	0.0225	0.0176	0.0239			
CGAUGAUACUCAGGAAGGAGAGUAGAGGAACAUGAGGAUCACCCAUGUAUGAGCUUUUUGCUCGUCAUGAACAGGAG [JR_SHM208a_Sub009] (puzzle: Sensor for hsa-mir-208a)				0.107	0.0644	0.111
CGCCAAUUGGCACAGGAUAUGAGCAUGCUCACAUGAGGAUCACCCAUGUGAUUACCAACGCAAAAUCAGAAGGGUGCCCUCGUCA [Beanza] (Eterna round: R96, puzzle: Same State 2)	0.0806	0.0991	0.164			
